Source: patent US20170152286A1
Positions of bridges follow the written chain, without caps; N, C: chain ends. Non-standard residues stand in square brackets, D forms with d. No end group written: not given here. Lys(5-OH) = 5-hydroxyl lysine

Target: MAGUK GK domain
Test: ITC

Binder: ARRDEYL[Lys(5-OH)]AIQ-NH2 (lactam 4-8)
- Kd: 5.9 µM
